The RNAGym collection of RNA variant scans (doi:10.1073/pnas.2313332121)

B1: TPR t1 (parent)
chain: GACCAAUCUGCCCUCAGAGCUCGAGAACAUCUUCGGAUGCAGAGGAGGCAGGCUUCGGUGGCGCGAUAGCGCCAACGUCCUCAACCUCCAAUGCAUCCCACCACAUGAUGAUGCCUGAAGAGCCUUGGUUUUUUG

Variants of: B1
Test: polymerase ribozyme fitness, log enrichment relative to wild type (log ratio); higher = more active; in vitro selection for triplet polymerase activity
Method in brief: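 Genotype fitness is the logarithm of its enrichment divided by wild-type enrichment, using inverse-variance-weighted averages of replicates. That logarithm is base 2. Enrichment was measured by Illumina sequencing of input and output libraries from one triplicate in vitro selection round, with frozen incubation at −7 °C, on PCR-built, transcribed mutant libraries of each subunit of a heterodimeric triplet polymerase ribozyme, retaining genotypes with ≥10 input reads and ≥1 read per output.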

Variant | polymerase ribozyme fitness (log ratio)
GCCCAAUCUGCCCUCAGAGCUCGAGAACAUCUUCGGAUGCAGAGGAGGCAGGCUUUGGUGGCGCGAUAGCGCCAACGUCCUCAACCUCCAAUGCAUCCCACCACAUGAUGAUGCCUGAAGAGCCUUGGUUUUUUG [A2C C56U] | -0.967
GCCAAAUCUGCCCUCAGAGCUCGAGAACAUCUUCGGAUGCAGAAGAGGUAGGCUUCGGUGGCACGAUAGCGCCAACGUCCUCAACCUCCAAUGCAUCCCACCACAUGAUGAUGCCUGAAGAGCCUUGGUUUUUUG [A2C C4A G44A C49U G63A] | -3.51
GCCCAAUCUGCCCUCAGAGCUCGAGAACAUCUUCGGAUGCAGAGGAGGCAGGCUUCGGUGGCGCGAUAGCGACAACGUCCUCAACCUCCAAUGCAUCCCACCACAUGAUUAUGCCUGAAGAGCCUUGGUUUUUUG [A2C C72A G110U] | -4.2
GCCCAGUAUGCCCUCAGAGCUCGAGAACAUCUUCGGAUGCAGAGGAGGCAGGCUUCGGUGACGCGAUAGCGCCAACGUCCUCAACCUCCAAUGCAUCCCAGCACAUGAUGAUGCCUGAAGAGCCUUGGUUCUUUG [A2C A6G C8A G61A C101G U131C] | -1.87
GCCCAAUCUGCCCUCAGAGCUCGAGAACAUCUUCGGUUGCAGAGGAGGCAGGCUUCGGUGGCGCGAUAGCGCCAACGUCCUCAACCUCCAAUGCAUCCCACCACAUGAUGAUGCCUGAAGAGUCUUGGUUUUUUG [A2C A37U C123U] | -0.77
GCCCAAUCUGCCCUCAGAGCUCGAGAACAUCUUCGGAUGCAGAGGAGGCAGGAUUCGGUGGCGCGAUAGCGCCAACGUCCUCAACCUCCAAUGCAUCCCACCACAUGAUGAUGCCUGAAGAGCCUUGGUUUUUUG [A2C C53A] | -1.9
GCCCAAUCUGCCUUCAGAGCUCGAGAACAUCUUCGGAUGCAGAGGAGGCAGGCUUCGGUGGCGCGAUAGCGCCAACGUCCUCAACCUCCAAUGCAUCCCACCACAUGAUAAUGCCUGAAGAGCCUUGGUUUUUUG [A2C C13U G110A] | -2.59
GCCCAAUCUGCCCUCAGAGCUCGAGAACAUCUUCGGAUGCAGAGGAGGCAGGCUUCGGUGGUGCGAUAGCGCCAUCGUCCUCAACCUCCAAUGCAUCCCACCACAUGAUAAUGCCUGAAGAGCCUUGGUUUUUUG [A2C C62U A75U G110A] | -4.14
GCCCAAUCUGCCCUCAGAGCUCGAGAACAUCUUCGGAUGCAGAGGAGGCAGGCUUCGGUGGCGCGAUAGCGCCAACGUCCUCAACCUCCAAUGCAUCCCCCCACAUGAAGAUGCCUGAAGAGCCUUGGUUUUUUG [A2C A100C U109A] | -6.4
GCCCAAUCUGCCCUCUGAGCUCGAGAACAUCUUCGGAUGCAGAGGAGGCAGGCUUCGGUGGCGCGAUAGCGACAACGUCCUCAACCUCCAAUGCAUCCCACCACAUGAUGAUGCCUGAAGAGCCAUGGUUUUUUG [A2C A16U C72A U125A] | -3.54
GCCCAAUCUGGCGUCAGAGCUCGAGAACAUCUUCGGAUGCAUAGGAGGCAGGCUUCGGUGGCGCGAUAGCGCCAGCGUCCACAACCUCCAAUGCAUCCCACCACAUGAUGAUGCCUGAAGAGCCUUGGUUUUUUG [A2C C11G C13G G42U A75G U81A] | -4.31
GCCCAAUCUGCCGUCUGAGCUCGAGAACAUCUUCGGAUGCAGAGGAGGCAGGCUUCGGUGGCGCGAUAGCGCCAACGUCCUCAACCUCCAAUGCAUCCCACCACAUGAUGAUGCCUGAAGAGCCUUGGUUUUUUG [A2C C13G A16U] | -4.01
GCCCAAUCUGCCGUUAGAGCUCGAGAACAUCUUCGGAUGCAGAGGAGGCAGGCUUCGGUGGCGCGAUAGCGUCAACGUCCUCAACCUCCAAUGCAUCCCACCACAUGAUGAUGCCUGAAGAGCCUUGGUUUUUUG [A2C C13G C15U C72U] | -4.37
GCCCAAUCUGCCCUAAGAGCUCGAAAACAUCUUCGGAUGCAGAGGAGGCAGGCUUCGGUGGCGCGAUAGCUCCAACGUCUUCAACCUCCAAUGCAUCCCACCACAUGAUGAUGCCUGAACAGCCUUGGUUUUUUC [A2C C15A G25A G71U C80U G120C G135C] | -4.64
GCCCAAUCUGCCCUCAGAGCUCGAGAACAUCUUCGGAUGCAGAGGAGGAAGGCUUCGGUGGCGCGAUAGCGCCAACGUCCUCAACCUCCAAUGCAUCCCACCACAUGAUGAUGCCUGAAGAGCCUUGGUUUUUUG [A2C C49A] | -1.83
GCCCAAUCUGUCCUUAGAGCUCGAGAACAUCUUCGGAUGCAGAGGAGGCAGGCUGCGGUGGCUCGAUAGCGCCAACGUCCUCAACCUCCGAUGCAUCCCACCACAUGAUGAUGCCUGAAGGGCCUUGGUUUUUUG [A2C C11U C15U U55G G63U A90G A121G] | -1.56
GCCCAAUCUGCCCUCAGAGAUCGAGAACAUCUUCGGAUGCAGAGGAGGCAGGCUUCGGUGGCGCGAUAGCGCCAACGUUCUCAACCUCCAAUGCAUCCCACCACAUGAUGAUGCCUGAAGAUCCGUGGUUUUUUG [A2C C20A C79U G122U U125G] | -3.43
GCCCAAUCUGCCCUCAGAGCUCGAGAACAUCUUCGGUUGCAGAGGAGGCAGGCUUCGGUGGCGCGAUAGCGCUAACGUCCUCAACCUCCAAUACAUCCCACCACAUGAUGAUGCCUGAACAGCCUUGGUUUUUUG [A2C A37U C73U G93A G120C] | -2.44
GCCCAAUCUGCCCUCGGAGCUCGAGAACAUCUUCGGAUGCAGAGGAGGAAGGCUGCGGUGGCGCGAUAGCGCCAACGUCCUCAACCUCCAAUGCAUCCCACCACAUGAUGAUGCCUGAACAGCUUUGGUUUUUUG [A2C A16G C49A U55G G120C C124U] | -1.14
GCCCAAUCUGCCCUCAGAGCUCGAGAACAUCUUCGGAUGCAGAGGAGGCAGGCUUCGGUGGCGCGAUAGCGUCAACGUCCUCAACCUCCAAUGCAUCCCACCACAUGAUGAUGCCUGAAUAGCCUUGGUUUUUUG [A2C C72U G120U] | -2.42
GCCCAAUCUGCCCUCAGAGCUCGAGAACAUCUUCGGAUGCAGAGGAGGCAGGCUUCGGUGGCGCGAUAGCGCCAACGUCCUCAACCUCCAAUGCAUCCCACCACAUGAUGAUGCUUGAAGAGCCUUGGUUUUUUG [A2C C115U] | -2.66
